Source: US20210388087A1 (Chugai, published 2021)

Target: T1, CD3 epsilon homodimer protein (UniProt P07766 23-126)
T1 construct: immobilized on Sensor chip CM4 by amine coupling; also called CD3 (CD3 epsilon)
Assay: SPR (Biacore T200), CD3 epsilon homodimer on CM4 chip, one-arm antibody as analyte, 25 C;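 also: homodimer attached to the sensor surface via amine coupling, HBS-EP+ used as running buffer during binding runs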
Experimental: An appropriate amount of CD3 epsilon homodimer protein was immobilized onto Sensor chip CM4 (GE Healthcare Japan Corp.) by the amine coupling method. Then, the antibody having an appropriate concentration was injected thereto as an analyte and allowed to interact with the CD3 epsilon homodimer protein on the sensor chip. Then, the sensor chip was regenerated by the injection of 10 mmol/L glycine-HCl (pH 1.5). The assay was conducted at 25 degrees C., and HBS-EP+(GE Healthcare Japan Corp.) was used as a running buffer. […] Each parameter was calculated using Biacore T200 Evaluation Software (GE Healthcare Japan Corp.).

T1 sequence (P07766 23-126): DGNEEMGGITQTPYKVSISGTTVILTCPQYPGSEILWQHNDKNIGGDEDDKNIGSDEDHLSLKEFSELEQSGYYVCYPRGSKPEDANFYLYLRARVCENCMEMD

ratio of amounts bound (altered form / CE115HA000) | Binder
0.28 | CE115HA000 A99D one-arm antibody (antibody, human IgG1, kappa, L234A L235A, N297A, name in Kabat numbering) heavy: QVQLVESGGGVVQPGRSLRLSCAASGFTFSNAWMHWVRQAPGKGLEWVAQIKAKSNNYATYYAESVKGRFTISRDDSKNSLYLQMNSLKTEDTAVYYCRYVHYGDYYGVDAWGQGTTVTVSSASTKGPSVFPLAPSSKSTSGGTAALGCLVKDYFPEPVTVSWNSGALTSGVHTFPAVLQSSGLYSLSSVVTVPSSSLGTQTYICNVNHKPSNTKVDKKVEPKSCDKTHTCPPCPAPEAAGGPSVFLFPPKPKDTLMISRTPEVTCVVVDVSHEDPEVKFNWYVDGVEVHNAKTKPREEQYASTYRVVSVLTVLHQDWLNGKEYKCKVSNKALPAPIEKTISKAKGQPREPQVYTLPPSRCELTKNQVSLSCAVKGFYPSDIAVEWESNGQPENNYKTTPPVLDSDGSFFLVSKLTVDKSRWQQGNVFSCSVMHEALHNHYTQKSLSLSPDYKDDDDK EPKSSDKTHTCPPCPAPELLGGPSVFLFPPKPKDTLMISRTPEVTCVVVDVSHEDPEVKFNWYVDGVEVHNAKTKPREEQYNSTYRVVSVLTVLHQDWLNGKEYKCKVSNKALPAPIEKTISKAKGQPREPQVCTLPPSRDELTKNQVSLWCLVKGFYPSDIAVEWESNGQPENNYKTTPPVLDSDGSFFLYSKLTVDKSRWQQGNVFSCSVMHEALHNRYTQKSLSLSP light: DIVMTQSPLSLPVTPGEPASISCRSSQSLVHSNRNTYLHWYQQKPGQAPRLLIYKVSNRFSGVPDRFSGSGSGTDFTLKISRVEAEDVGVYYCGQGTQVPYTFGQGTKLEIKRTVAAPSVFIFPPSDEQLKSGTASVVCLLNNFYPREAKVQWKVDNALQSGNSQESVTEQDSKDSTYSLSSTLTLSKADYEKHKVYACEVTHQGLSSPVTKSFNRGEC
0.91 | CE115HA000 A99Q one-arm antibody (antibody, human IgG1, kappa, L234A L235A, N297A, name in Kabat numbering) heavy: QVQLVESGGGVVQPGRSLRLSCAASGFTFSNAWMHWVRQAPGKGLEWVAQIKAKSNNYATYYAESVKGRFTISRDDSKNSLYLQMNSLKTEDTAVYYCRYVHYGQYYGVDAWGQGTTVTVSSASTKGPSVFPLAPSSKSTSGGTAALGCLVKDYFPEPVTVSWNSGALTSGVHTFPAVLQSSGLYSLSSVVTVPSSSLGTQTYICNVNHKPSNTKVDKKVEPKSCDKTHTCPPCPAPEAAGGPSVFLFPPKPKDTLMISRTPEVTCVVVDVSHEDPEVKFNWYVDGVEVHNAKTKPREEQYASTYRVVSVLTVLHQDWLNGKEYKCKVSNKALPAPIEKTISKAKGQPREPQVYTLPPSRCELTKNQVSLSCAVKGFYPSDIAVEWESNGQPENNYKTTPPVLDSDGSFFLVSKLTVDKSRWQQGNVFSCSVMHEALHNHYTQKSLSLSPDYKDDDDK EPKSSDKTHTCPPCPAPELLGGPSVFLFPPKPKDTLMISRTPEVTCVVVDVSHEDPEVKFNWYVDGVEVHNAKTKPREEQYNSTYRVVSVLTVLHQDWLNGKEYKCKVSNKALPAPIEKTISKAKGQPREPQVCTLPPSRDELTKNQVSLWCLVKGFYPSDIAVEWESNGQPENNYKTTPPVLDSDGSFFLYSKLTVDKSRWQQGNVFSCSVMHEALHNRYTQKSLSLSP light: DIVMTQSPLSLPVTPGEPASISCRSSQSLVHSNRNTYLHWYQQKPGQAPRLLIYKVSNRFSGVPDRFSGSGSGTDFTLKISRVEAEDVGVYYCGQGTQVPYTFGQGTKLEIKRTVAAPSVFIFPPSDEQLKSGTASVVCLLNNFYPREAKVQWKVDNALQSGNSQESVTEQDSKDSTYSLSSTLTLSKADYEKHKVYACEVTHQGLSSPVTKSFNRGEC
1.13 | CE115HA000 A99L one-arm antibody (antibody, human IgG1, kappa, L234A L235A, N297A, name in Kabat numbering) heavy: QVQLVESGGGVVQPGRSLRLSCAASGFTFSNAWMHWVRQAPGKGLEWVAQIKAKSNNYATYYAESVKGRFTISRDDSKNSLYLQMNSLKTEDTAVYYCRYVHYGLYYGVDAWGQGTTVTVSSASTKGPSVFPLAPSSKSTSGGTAALGCLVKDYFPEPVTVSWNSGALTSGVHTFPAVLQSSGLYSLSSVVTVPSSSLGTQTYICNVNHKPSNTKVDKKVEPKSCDKTHTCPPCPAPEAAGGPSVFLFPPKPKDTLMISRTPEVTCVVVDVSHEDPEVKFNWYVDGVEVHNAKTKPREEQYASTYRVVSVLTVLHQDWLNGKEYKCKVSNKALPAPIEKTISKAKGQPREPQVYTLPPSRCELTKNQVSLSCAVKGFYPSDIAVEWESNGQPENNYKTTPPVLDSDGSFFLVSKLTVDKSRWQQGNVFSCSVMHEALHNHYTQKSLSLSPDYKDDDDK EPKSSDKTHTCPPCPAPELLGGPSVFLFPPKPKDTLMISRTPEVTCVVVDVSHEDPEVKFNWYVDGVEVHNAKTKPREEQYNSTYRVVSVLTVLHQDWLNGKEYKCKVSNKALPAPIEKTISKAKGQPREPQVCTLPPSRDELTKNQVSLWCLVKGFYPSDIAVEWESNGQPENNYKTTPPVLDSDGSFFLYSKLTVDKSRWQQGNVFSCSVMHEALHNRYTQKSLSLSP light: DIVMTQSPLSLPVTPGEPASISCRSSQSLVHSNRNTYLHWYQQKPGQAPRLLIYKVSNRFSGVPDRFSGSGSGTDFTLKISRVEAEDVGVYYCGQGTQVPYTFGQGTKLEIKRTVAAPSVFIFPPSDEQLKSGTASVVCLLNNFYPREAKVQWKVDNALQSGNSQESVTEQDSKDSTYSLSSTLTLSKADYEKHKVYACEVTHQGLSSPVTKSFNRGEC
1.43 | CE115HA000 A99F one-arm antibody (antibody, human IgG1, kappa, L234A L235A, N297A, name in Kabat numbering) heavy: QVQLVESGGGVVQPGRSLRLSCAASGFTFSNAWMHWVRQAPGKGLEWVAQIKAKSNNYATYYAESVKGRFTISRDDSKNSLYLQMNSLKTEDTAVYYCRYVHYGFYYGVDAWGQGTTVTVSSASTKGPSVFPLAPSSKSTSGGTAALGCLVKDYFPEPVTVSWNSGALTSGVHTFPAVLQSSGLYSLSSVVTVPSSSLGTQTYICNVNHKPSNTKVDKKVEPKSCDKTHTCPPCPAPEAAGGPSVFLFPPKPKDTLMISRTPEVTCVVVDVSHEDPEVKFNWYVDGVEVHNAKTKPREEQYASTYRVVSVLTVLHQDWLNGKEYKCKVSNKALPAPIEKTISKAKGQPREPQVYTLPPSRCELTKNQVSLSCAVKGFYPSDIAVEWESNGQPENNYKTTPPVLDSDGSFFLVSKLTVDKSRWQQGNVFSCSVMHEALHNHYTQKSLSLSPDYKDDDDK EPKSSDKTHTCPPCPAPELLGGPSVFLFPPKPKDTLMISRTPEVTCVVVDVSHEDPEVKFNWYVDGVEVHNAKTKPREEQYNSTYRVVSVLTVLHQDWLNGKEYKCKVSNKALPAPIEKTISKAKGQPREPQVCTLPPSRDELTKNQVSLWCLVKGFYPSDIAVEWESNGQPENNYKTTPPVLDSDGSFFLYSKLTVDKSRWQQGNVFSCSVMHEALHNRYTQKSLSLSP light: DIVMTQSPLSLPVTPGEPASISCRSSQSLVHSNRNTYLHWYQQKPGQAPRLLIYKVSNRFSGVPDRFSGSGSGTDFTLKISRVEAEDVGVYYCGQGTQVPYTFGQGTKLEIKRTVAAPSVFIFPPSDEQLKSGTASVVCLLNNFYPREAKVQWKVDNALQSGNSQESVTEQDSKDSTYSLSSTLTLSKADYEKHKVYACEVTHQGLSSPVTKSFNRGEC
0.82 | CE115HA000 A99S one-arm antibody (antibody, human IgG1, kappa, L234A L235A, N297A, name in Kabat numbering) heavy: QVQLVESGGGVVQPGRSLRLSCAASGFTFSNAWMHWVRQAPGKGLEWVAQIKAKSNNYATYYAESVKGRFTISRDDSKNSLYLQMNSLKTEDTAVYYCRYVHYGSYYGVDAWGQGTTVTVSSASTKGPSVFPLAPSSKSTSGGTAALGCLVKDYFPEPVTVSWNSGALTSGVHTFPAVLQSSGLYSLSSVVTVPSSSLGTQTYICNVNHKPSNTKVDKKVEPKSCDKTHTCPPCPAPEAAGGPSVFLFPPKPKDTLMISRTPEVTCVVVDVSHEDPEVKFNWYVDGVEVHNAKTKPREEQYASTYRVVSVLTVLHQDWLNGKEYKCKVSNKALPAPIEKTISKAKGQPREPQVYTLPPSRCELTKNQVSLSCAVKGFYPSDIAVEWESNGQPENNYKTTPPVLDSDGSFFLVSKLTVDKSRWQQGNVFSCSVMHEALHNHYTQKSLSLSPDYKDDDDK EPKSSDKTHTCPPCPAPELLGGPSVFLFPPKPKDTLMISRTPEVTCVVVDVSHEDPEVKFNWYVDGVEVHNAKTKPREEQYNSTYRVVSVLTVLHQDWLNGKEYKCKVSNKALPAPIEKTISKAKGQPREPQVCTLPPSRDELTKNQVSLWCLVKGFYPSDIAVEWESNGQPENNYKTTPPVLDSDGSFFLYSKLTVDKSRWQQGNVFSCSVMHEALHNRYTQKSLSLSP light: DIVMTQSPLSLPVTPGEPASISCRSSQSLVHSNRNTYLHWYQQKPGQAPRLLIYKVSNRFSGVPDRFSGSGSGTDFTLKISRVEAEDVGVYYCGQGTQVPYTFGQGTKLEIKRTVAAPSVFIFPPSDEQLKSGTASVVCLLNNFYPREAKVQWKVDNALQSGNSQESVTEQDSKDSTYSLSSTLTLSKADYEKHKVYACEVTHQGLSSPVTKSFNRGEC
1.48 | CE115HA000 A99K one-arm antibody (antibody, human IgG1, kappa, L234A L235A, N297A, name in Kabat numbering) heavy: QVQLVESGGGVVQPGRSLRLSCAASGFTFSNAWMHWVRQAPGKGLEWVAQIKAKSNNYATYYAESVKGRFTISRDDSKNSLYLQMNSLKTEDTAVYYCRYVHYGKYYGVDAWGQGTTVTVSSASTKGPSVFPLAPSSKSTSGGTAALGCLVKDYFPEPVTVSWNSGALTSGVHTFPAVLQSSGLYSLSSVVTVPSSSLGTQTYICNVNHKPSNTKVDKKVEPKSCDKTHTCPPCPAPEAAGGPSVFLFPPKPKDTLMISRTPEVTCVVVDVSHEDPEVKFNWYVDGVEVHNAKTKPREEQYASTYRVVSVLTVLHQDWLNGKEYKCKVSNKALPAPIEKTISKAKGQPREPQVYTLPPSRCELTKNQVSLSCAVKGFYPSDIAVEWESNGQPENNYKTTPPVLDSDGSFFLVSKLTVDKSRWQQGNVFSCSVMHEALHNHYTQKSLSLSPDYKDDDDK EPKSSDKTHTCPPCPAPELLGGPSVFLFPPKPKDTLMISRTPEVTCVVVDVSHEDPEVKFNWYVDGVEVHNAKTKPREEQYNSTYRVVSVLTVLHQDWLNGKEYKCKVSNKALPAPIEKTISKAKGQPREPQVCTLPPSRDELTKNQVSLWCLVKGFYPSDIAVEWESNGQPENNYKTTPPVLDSDGSFFLYSKLTVDKSRWQQGNVFSCSVMHEALHNRYTQKSLSLSP light: DIVMTQSPLSLPVTPGEPASISCRSSQSLVHSNRNTYLHWYQQKPGQAPRLLIYKVSNRFSGVPDRFSGSGSGTDFTLKISRVEAEDVGVYYCGQGTQVPYTFGQGTKLEIKRTVAAPSVFIFPPSDEQLKSGTASVVCLLNNFYPREAKVQWKVDNALQSGNSQESVTEQDSKDSTYSLSSTLTLSKADYEKHKVYACEVTHQGLSSPVTKSFNRGEC
